The values that follow come from patent publication US20160244509A1.

B1: recombinant GENEART codon optimized D25 (rD25 GA) (antibody, V domains shown)
VH: QVQLVQSGAEVKKPGSSVMVSCQASGGPLRNYIINWLRQAPGQGPEWMGGIIPVLGTVHYAPKFQGRVTITADESTDTAYIHLISLRSEDTAMYYCATETALVVSTTYLPHYFDNWGQGTLVTVSS
VL: DIQMTQSPSSLSAAVGDRVTITCQASQDIVNYLNWYQQKPGKAPKLLIYVASNLETGVPSRFSGSGSGTDFSLTISSLQPEDVATYYCQQYDNLPLTFGGGTKVEIKR
B2: AM23 (antibody, V domains shown)
VH: EVQLVESGGNVVKPGTSLRLSCAATGFNFHNYGMNWVRQAPGKGLEWVAVVWYDGSKKYYADSVTGRFAISRDNSKNTLYLQMNSLRVEDTAVYYCVRDKVGPTPYFDSWGQGTLVTVSS
VL: SYVLTQPPSVSLAPGGTAAITCGRNNIGSETVHWYQQKPGQAPVLVVYDDDDRPSGIPERFSGSNSGNTATLTISRVEAGDEADYYCQVWDRSNYHQVFGGGTKLTV
B3: AM16 (antibody, V domains shown)
VH: EVQLVETGGGLAQPGGSLRLSCAASGFTFSSYNMNWVRQAPGKGLEWVSHISAGSSYIYYSDSVKGRFTVSRDNVRNSVYLQMNSLRAADTAVYYCAREDYGPGNYYSPNWFDPWGQGTLVTVSS
VL: QSVVTQPPSVSGAPGQRVTISCTGSSSNIGAGYDVHWYQQLPGTAPKLLIYGNTNRPSGVSDRFSGSKSGTSASLAITGLQAEDEADYYCHSYDRSLSGSVFGGGTKLTV
B4: D25 (B63D10-D25), monoclonal antibody from the B cell line (culture supernatant or purified from it) (antibody, V domains shown)
VH: B1 VH
VL: DIQMTQSPSSLSAAVGDRVTITCQASQDIVNYLNWYQQKPGKAPKLLIYVASNLETGVPSRFSGSGSGTDFSLTISSLQPEDVATYYCQQYDNLPLTFGGGTKVEIKRTV
B5: recombinant purified D25 (rD25), expressed in 293T cells (antibody, V domains shown)
VH: B1 VH
VL: B4 VL
B6: AM14 (antibody, V domains shown)
VH: EVQLVESGGGVVQPGRSLRLSCAASGFSFSHYAMHWVRQAPGKGLEWVAVISYDGENTYYADSVKGRFSISRDNSKNTVSLQMNSLRPEDTALYYCARDRIVDDYYYYGMDVWGQGATVTVSS
VL: DIQMTQSPSSLSASVGDRVTITCQASQDIKKYLNWYHQKPGKVPELLMHDASNLETGVPSRFSGRGSGTDFTLTISSLQPEDIGTYYCQQYDNLPPLTFGGGTKVEIKRTV

For one assay, the target named is RSV F protein of RS virus subtype A strains (A2, X and 2006-1). The assay is described as follows: cell-based or functional assay.
In turn, B1 yielded an IC50 values (ng/ml), RS virus neutralization, HEp2 cells, subtype A of 5.3 ng/mL and an IC50 values (ng/ml), RS virus neutralization, Vero cells, subtype A of 3.2 ng/mL.

The target of a further assay is RSV F protein of RS virus subtype B strains (2007-2 and Z). Put plainly: cell-based or functional assay.
Molecule B1 showed an IC50 values (ng/ml), RS virus neutralization, HEp2 cells, subtype B of 1.3 ng/mL and an IC50 values (ng/ml), RS virus neutralization, Vero cells, subtype B of 1.2 ng/mL.

A further assay concerns the target RSV F protein of RS virus subtype A strains (A2, X and 2006-1). The assay is described as follows: cell-based or functional assay. This is another data set of the same source.
On to B2, for which the IC50 values (ng/ml), RS virus neutralization, HEp2 cells, subtype A turned out to be 25 ng/mL and the IC50 values (ng/ml), RS virus neutralization, Vero cells, subtype A is 19.4 ng/mL.
As for B3, the IC50 values (ng/ml), RS virus neutralization, HEp2 cells, subtype A is 286 ng/mL and the IC50 values (ng/ml), RS virus neutralization, Vero cells, subtype A was determined as 304 ng/mL.
Consider B4, for which the IC50 values (ng/ml), RS virus neutralization, HEp2 cells, subtype A came out at 3.3 ng/mL and the IC50 values (ng/ml), RS virus neutralization, Vero cells, subtype A was 3.4 ng/mL.
As to B5, the IC50 values (ng/ml), RS virus neutralization, HEp2 cells, subtype A came to 2.1 ng/mL and the IC50 values (ng/ml), RS virus neutralization, Vero cells, subtype A is 1.6 ng/mL.
The corresponding values for B6 are 21.5 ng/mL and 15.2 ng/mL.

Another assay has as its target RSV F protein of RS virus subtype B strains (2007-2 and Z). The assay is described as follows: cell-based or functional assay. The source holds these as a separate data set.
B2 yielded an IC50 values (ng/ml), RS virus neutralization, HEp2 cells, subtype B of 191 ng/mL and an IC50 values (ng/ml), RS virus neutralization, Vero cells, subtype B of 169 ng/mL.
The matching figures for B3: 125 ng/mL and 126 ng/mL.
Consider B4, for which the IC50 values (ng/ml), RS virus neutralization, HEp2 cells, subtype B is 14.3 ng/mL and the IC50 values (ng/ml), RS virus neutralization, Vero cells, subtype B came to 9 ng/mL.
Consider B5, for which the IC50 values (ng/ml), RS virus neutralization, HEp2 cells, subtype B amounted to 1.9 ng/mL and the IC50 values (ng/ml), RS virus neutralization, Vero cells, subtype B came to 0.3 ng/mL.
B6: the IC50 values (ng/ml), RS virus neutralization, HEp2 cells, subtype B worked out at 6.7 ng/mL and the IC50 values (ng/ml), RS virus neutralization, Vero cells, subtype B amounted to 1.1 ng/mL.
